This data set concerns the molecule itself. Nature of the data set: SAXS; SEC-coupled SAXS (SWING beamline, SOLEIL); ~25 mg/mL in Tris-HCl 40 mM pH 7.6, 8% glycerol, online Agilent BioSEC-3 300 Å column; Mw from SAXSMoW, volume from DAMMIF; NarGH heterodimers into a trimer.

B1: holoNarGH, Moco-loaded soluble catalytic NarGH complex of nitrate reductase A (complex, E. coli)
chain 1: MSKFLDRFRYFKQKGETFADGHGQLLNTNRDWEDGYRQRWQHDKIVRSTHGVNCTGSCSWKIYVKNGLVTWETQQTDYPRTRPDLPNHEPRGCPRGASYSWYLYSANRLKYPMMRKRLMKMWREAKALHSDPVEAWASIIEDADKAKSFKQARGRGGFVRSSWQEVNELIAASNVYTIKNYGPDRVAGFSPIPAMSMVSYASGARYLSLIGGTCLSFYDWYCDLPPASPQTWGEQTDVPESADWYNSSYIIAWGSNVPQTRTPDAHFFTEVRYKGTKTVAVTPDYAEIAKLCDLWLAPKQGTDAAMALAMGHVMLREFHLDNPSQYFTDYVRRYTDMPMLVMLEERDGYYAAGRMLRAADLVDALGQENNPEWKTVAFNTNGEMVAPNGSIGFRWGEKGKWNLEQRDGKTGEETELQLSLLGSQDEIAEVGFPYFGGDGTEHFNKVELENVLLHKLPVKRLQLADGSTALVTTVYDLTLANYGLERGLNDVNCATSYDDVKAYTPAWAEQITGVSRSQIIRIAREFADNADKTHGRSMIIVGAGLNHWYHLDMNYRGLINMLIFCGCVGQSGGGWAHYVGQEKLRPQTGWQPLAFALDWQRPARHMNSTSYFYNHSSQWRYETVTAEELLSPMADKSRYTGHLIDFNVRAERMGWLPSAPQLGTNPLTIAGEAEKAGMNPVDYTVKSLKEGSIRFAAEQPENGKNHPRNLFIWRSNLLGSSGKGHEFMLKYLLGTEHGIQGKDLGQQGGVKPEEVDWQDNGLEGKLDLVVTLDFRLSSTCLYSDIILPTATWYEKDDMNTSDMHPFIHPLSAAVDPAWEAKSDWEIYKAIAKKFSEVCVGHLGKETDIVTLPIQHDSAAELAQPLDVKDWKKGECDLIPGKTAPHIMVVERDYPATYERFTSIGPLMEKIGNGGKGIAWNTQSEMDLLRKLNYTKAEGPAKGQPMLNTAIDAAEMILTLAPETNGQVAVKAWAALSEFTGRDHTHLALNKEDEKIRFRDIQAQPRKIISSPTWSGLEDEHVSYNAGYTNVHELIPWRTLSGRQQLYQDHQWMRDFGESLLVYRPPIDTRSVKEVIGQKSNGNQEKALNFLTPHQKWGIHSTYSDNLLMLTLGRGGPVVWLSEADAKDLGIADNDWIEVFNSNGALTARAVVSQRVPAGMTMMYHAQERIVNLPGSEITQQRGGIHNSVTRITPKPTHMIGGYAHLAYGFNYYGTVGSNRDEFVVVRKMKNIDWLDGEGNDQVQESVK
chain 2: MKIRSQVGMVLNLDKCIGCHTCSVTCKNVWTSREGVEYAWFNNVETKPGQGFPTDWENQEKYKGGWIRKINGKLQPRMGNRAMLLGKIFANPHLPGIDDYYEPFDFDYQNLHTAPEGSKSQPIARPRSLITGERMAKIEKGPNWEDDLGGEFDKLAKDKNFDNIQKAMYSQFENTFMMYLPRLCEHCLNPACVATCPSGAIYKREEDGIVLIDQDKCRGWRMCITGCPYKKIYFNWKSGKSEKCIFCYPRIEAGQPTVCSETCVGRIRYLGVLLYDADAIERAASTENEKDLYQRQLDVFLDPNDPKVIEQAIKDGIPLSVIEAAQQSPVYKMAMEWKLALPLHPEYRTLPMVWYVPPLSPIQSAADAGELGSNGILPDVESLRIPVQYLANLLTAGDTKPVLRALKRMLAMRHYKRAETVDGKVDTRALEEVGLTEAQAQEMYRYLAIANYEDRFVVPSSHRELAREAFPEKNGCGFTFGDGCHGSDTKFNLFNSRRIDAIDVTSKTEPHP
notes: NarG, nitrate-reducing catalytic subunit of respiratory nitrate reductase A, E. coli; carries Mo-bisPGD and the [4Fe-4S] cluster FS0; Printed residue numbers (Arg108, Glu794) follow the crystal structure 1q16; NarH, electron-transfer subunit of respiratory nitrate reductase A, E. coli; carries four Fe/S clusters (FS1-4); The unit written here is the NarGH heterodimer (~200 kDa), which is trimeric …
For B1, the stoichiometry N (as a rule, the number of molecules, sites or subunits per partner or assembly) amounted to 3.

B2: NarG_(R108A)H_(His6) complex (complex, E. coli)
chain 1: MSKFLDRFRYFKQKGETFADGHGQLLNTNRDWEDGYRQRWQHDKIVRSTHGVNCTGSCSWKIYVKNGLVTWETQQTDYPRTRPDLPNHEPRGCPRGASYSWYLYSANALKYPMMRKRLMKMWREAKALHSDPVEAWASIIEDADKAKSFKQARGRGGFVRSSWQEVNELIAASNVYTIKNYGPDRVAGFSPIPAMSMVSYASGARYLSLIGGTCLSFYDWYCDLPPASPQTWGEQTDVPESADWYNSSYIIAWGSNVPQTRTPDAHFFTEVRYKGTKTVAVTPDYAEIAKLCDLWLAPKQGTDAAMALAMGHVMLREFHLDNPSQYFTDYVRRYTDMPMLVMLEERDGYYAAGRMLRAADLVDALGQENNPEWKTVAFNTNGEMVAPNGSIGFRWGEKGKWNLEQRDGKTGEETELQLSLLGSQDEIAEVGFPYFGGDGTEHFNKVELENVLLHKLPVKRLQLADGSTALVTTVYDLTLANYGLERGLNDVNCATSYDDVKAYTPAWAEQITGVSRSQIIRIAREFADNADKTHGRSMIIVGAGLNHWYHLDMNYRGLINMLIFCGCVGQSGGGWAHYVGQEKLRPQTGWQPLAFALDWQRPARHMNSTSYFYNHSSQWRYETVTAEELLSPMADKSRYTGHLIDFNVRAERMGWLPSAPQLGTNPLTIAGEAEKAGMNPVDYTVKSLKEGSIRFAAEQPENGKNHPRNLFIWRSNLLGSSGKGHEFMLKYLLGTEHGIQGKDLGQQGGVKPEEVDWQDNGLEGKLDLVVTLDFRLSSTCLYSDIILPTATWYEKDDMNTSDMHPFIHPLSAAVDPAWEAKSDWEIYKAIAKKFSEVCVGHLGKETDIVTLPIQHDSAAELAQPLDVKDWKKGECDLIPGKTAPHIMVVERDYPATYERFTSIGPLMEKIGNGGKGIAWNTQSEMDLLRKLNYTKAEGPAKGQPMLNTAIDAAEMILTLAPETNGQVAVKAWAALSEFTGRDHTHLALNKEDEKIRFRDIQAQPRKIISSPTWSGLEDEHVSYNAGYTNVHELIPWRTLSGRQQLYQDHQWMRDFGESLLVYRPPIDTRSVKEVIGQKSNGNQEKALNFLTPHQKWGIHSTYSDNLLMLTLGRGGPVVWLSEADAKDLGIADNDWIEVFNSNGALTARAVVSQRVPAGMTMMYHAQERIVNLPGSEITQQRGGIHNSVTRITPKPTHMIGGYAHLAYGFNYYGTVGSNRDEFVVVRKMKNIDWLDGEGNDQVQESVK
chain 2: MKIRSQVGMVLNLDKCIGCHTCSVTCKNVWTSREGVEYAWFNNVETKPGQGFPTDWENQEKYKGGWIRKINGKLQPRMGNRAMLLGKIFANPHLPGIDDYYEPFDFDYQNLHTAPEGSKSQPIARPRSLITGERMAKIEKGPNWEDDLGGEFDKLAKDKNFDNIQKAMYSQFENTFMMYLPRLCEHCLNPACVATCPSGAIYKREEDGIVLIDQDKCRGWRMCITGCPYKKIYFNWKSGKSEKCIFCYPRIEAGQPTVCSETCVGRIRYLGVLLYDADAIERAASTENEKDLYQRQLDVFLDPNDPKVIEQAIKDGIPLSVIEAAQQSPVYKMAMEWKLALPLHPEYRTLPMVWYVPPLSPIQSAADAGELGSNGILPDVESLRIPVQYLANLLTAGDTKPVLRALKRMLAMRHYKRAETVDGKVDTRALEEVGLTEAQAQEMYRYLAIANYEDRFVVPSSHRELAREAFPEKNGCGFTFGDGCHGSDTKFNLFNSRRIDAIDVTSKTEPHP
notes: NarG, catalytic subunit of respiratory nitrate reductase A, E. coli, with R108A; NarH, electron-transfer subunit of respiratory nitrate reductase A, E. coli; The unit is the NarGH heterodimer; His6 put on NarH from the plasmid name; also called R108A NarGH; NarGH variant; source: E. coli with pNarG_(R108A)H_(His6)J, purified
B2: the binding result is “binds”.

B3: apoNarGH, cofactor-less NarGH complex produced in absence of NarJ (complex, E. coli)
chain 1: MSKFLDRFRYFKQKGETFADGHGQLLNTNRDWEDGYRQRWQHDKIVRSTHGVNCTGSCSWKIYVKNGLVTWETQQTDYPRTRPDLPNHEPRGCPRGASYSWYLYSANRLKYPMMRKRLMKMWREAKALHSDPVEAWASIIEDADKAKSFKQARGRGGFVRSSWQEVNELIAASNVYTIKNYGPDRVAGFSPIPAMSMVSYASGARYLSLIGGTCLSFYDWYCDLPPASPQTWGEQTDVPESADWYNSSYIIAWGSNVPQTRTPDAHFFTEVRYKGTKTVAVTPDYAEIAKLCDLWLAPKQGTDAAMALAMGHVMLREFHLDNPSQYFTDYVRRYTDMPMLVMLEERDGYYAAGRMLRAADLVDALGQENNPEWKTVAFNTNGEMVAPNGSIGFRWGEKGKWNLEQRDGKTGEETELQLSLLGSQDEIAEVGFPYFGGDGTEHFNKVELENVLLHKLPVKRLQLADGSTALVTTVYDLTLANYGLERGLNDVNCATSYDDVKAYTPAWAEQITGVSRSQIIRIAREFADNADKTHGRSMIIVGAGLNHWYHLDMNYRGLINMLIFCGCVGQSGGGWAHYVGQEKLRPQTGWQPLAFALDWQRPARHMNSTSYFYNHSSQWRYETVTAEELLSPMADKSRYTGHLIDFNVRAERMGWLPSAPQLGTNPLTIAGEAEKAGMNPVDYTVKSLKEGSIRFAAEQPENGKNHPRNLFIWRSNLLGSSGKGHEFMLKYLLGTEHGIQGKDLGQQGGVKPEEVDWQDNGLEGKLDLVVTLDFRLSSTCLYSDIILPTATWYEKDDMNTSDMHPFIHPLSAAVDPAWEAKSDWEIYKAIAKKFSEVCVGHLGKETDIVTLPIQHDSAAELAQPLDVKDWKKGECDLIPGKTAPHIMVVERDYPATYERFTSIGPLMEKIGNGGKGIAWNTQSEMDLLRKLNYTKAEGPAKGQPMLNTAIDAAEMILTLAPETNGQVAVKAWAALSEFTGRDHTHLALNKEDEKIRFRDIQAQPRKIISSPTWSGLEDEHVSYNAGYTNVHELIPWRTLSGRQQLYQDHQWMRDFGESLLVYRPPIDTRSVKEVIGQKSNGNQEKALNFLTPHQKWGIHSTYSDNLLMLTLGRGGPVVWLSEADAKDLGIADNDWIEVFNSNGALTARAVVSQRVPAGMTMMYHAQERIVNLPGSEITQQRGGIHNSVTRITPKPTHMIGGYAHLAYGFNYYGTVGSNRDEFVVVRKMKNIDWLDGEGNDQVQESVK
chain 2: MKIRSQVGMVLNLDKCIGCHTCSVTCKNVWTSREGVEYAWFNNVETKPGQGFPTDWENQEKYKGGWIRKINGKLQPRMGNRAMLLGKIFANPHLPGIDDYYEPFDFDYQNLHTAPEGSKSQPIARPRSLITGERMAKIEKGPNWEDDLGGEFDKLAKDKNFDNIQKAMYSQFENTFMMYLPRLCEHCLNPACVATCPSGAIYKREEDGIVLIDQDKCRGWRMCITGCPYKKIYFNWKSGKSEKCIFCYPRIEAGQPTVCSETCVGRIRYLGVLLYDADAIERAASTENEKDLYQRQLDVFLDPNDPKVIEQAIKDGIPLSVIEAAQQSPVYKMAMEWKLALPLHPEYRTLPMVWYVPPLSPIQSAADAGELGSNGILPDVESLRIPVQYLANLLTAGDTKPVLRALKRMLAMRHYKRAETVDGKVDTRALEEVGLTEAQAQEMYRYLAIANYEDRFVVPSSHRELAREAFPEKNGCGFTFGDGCHGSDTKFNLFNSRRIDAIDVTSKTEPHP
notes: NarG, nitrate-reducing catalytic subunit of respiratory nitrate reductase A, E. coli; here devoid of FS0 and Moco; Printed residue numbers follow the crystal structure 1q16; NarH, electron-transfer subunit of respiratory nitrate reductase A, E. coli; The unit is the NarGH heterodimer; His6 put on NarH from the plasmid name; also called Moco-less His-tagged NarGH complex
Turning to B3, the “stoichiometry N” value came to 3.

For the origin of these results see article PMC5123574, “Redox cofactors insertion in prokaryotic molybdoenzymes occurs via a conserved folding mechanism” (Scientific Reports, 2016).
